The nature of the series: label from the status in PepcDB records.
Consider “MQFRSIIRIVGLLLALFSVTMLAPALVALLYRDGAGVPFVTTFFVLLFCGAMCWFPNRRHKHELKSRDGFLIVVLFWTVLGSAGSLPFLIADNPNISVTDAFFESFSALTTTGATVIVGLDELPKAILFYRQFLQWFGGMGIIVLAVAILPVLGIGGMQLYRAEIPGPVKDTKMTPRIAETAKALWYIYLSLTIACAVAFWLAGMTPFDAISHSFSTIAIGGFSTHDASMGYFDSYAINLITVVFLLISACNFTLHFAAFASGGVHPKYYWKDPEFRAFIFIQVLLFLVCFLLLLKHHSYTSPYDAFDQALFQTVSISTTAGFTTTGFADWPLFLPVLLLFSSFIGGCAGSTGGGMKVIRILLLTLQGARELKRLVHPRAVYTIKVGGSALPQRVVDAVWGFFSAYALVFVVCMLGLIATGMDELSAFSAVAATLNNLGPGLGEVALHFGDVNDKAKWVLIVSMLFGRLEIFTLLILLTPTFWRS”, for which the protein production entry is “not failed”. Then “MQGENAPQRSAEVTILDKQAIDIPHPLPGQDDQEFWIYVQKGRLGPKREFQVGIHYYHALNPGDKGVLTYQGQRFLHFALKRLEHHHHHH”, with “not failed”; and “MQGHHFGGDMSNSEAIDNTTAKLRLAQSSSLLALALLIGSAPAQAADTDWGWLAIGAPAATAQGWTGKGVVIGVVDTGIDFSHPALSGRAFDYNYGSFVAGSNHPHATHVAGIIGATDINRGMEGVAPDVRFSSMKIFTGAGGSYLGDAAVADAYDGAIGSGVRIFNNSWGSSDSIANFTSREELLAHEPLLVGAFTRAVNADAVLVWSTGNDGRSQPSWQAAAPYYIQELKANWIAVTSVGENGTIASYANACGVAKAWCLAAPGGDFNPGIYSTIPGKDYGYMSGTSMAAPYVTGATAIARQMFPKASGAQLAQIVLQTSRDIGAPGIDDVYGWGLLAVDNIVDTINPRGAALFASAAWGRFTTLSAIGNTVLDRISDLRNGRGDVVTAPLAFAGQNGAFSQSGSNPRNAYAADLAAAPQPSPLGFGSVWARGLAGRATLSGSASSPQTTADISGGLLGFDLVNNQNLLVGIAGGGSNTNLTASGISDKAGAQAWHVLGYAAAMYGPAFVNVAGGWNSFDQSYQRRVIPGTAGTVFASTISAAQSSSTDVAYFFQGRGGWTFQTEVGRIEPYVHGATRNQSFGGFSETNASIFSLSVPSASLSEAEYGAGVRWACAPIKTVDQRVAVAPTIDLAYVRFTNDGPIQVETNLLGTSVVGQTAALGADAIRVAAGLSLTSLAGISGSFGYTGTVRDAATAHTVSGGLSIKF”, with “failed”; and “MQIFVNGETIETEVITLNLLLEELGYEGNWLATAVNAEVVPIDARSRCVLHEGDKIEILSPMQGG”, with “failed”. Then “MQIGGRQHGDWTHYSVDSDLVVAADAWQVSLGLPGGVFPPDVEPGAMVKVQVGGETVLMGRIDDISHSVASGSHQLTLSGRDLAGMLLDCSAPLFTGKGMTLQDVLDNVVKPLGIANIRVDAKARGQIEKINVDPGNSAWDVLTRAAQANGLTAWFDPDGTLLVGGPDYSRPASARLILRRDGKGNNVLSLAETRSHAQRYSELTLLGQGHGQSLTPGRHAMRHHVFDSDVCYHKPRIQVEPDAASPAELAARADKMLADARLAGYTLTATVAGHRDSQGALWTPGQRIEVESEPHGINGTYFLMARTFEGGRGQGSVTRLTLKEDKCWIPVMRAGKQ”, with “failed”. Next, “MQIIEGKLQLQGNERVAILTSRFNHIITDRLQEGAMDCFKRHGGDEDLLDIVLVPGAYELPFILDKLLESEKYDGVCVLGAIIRGGTPHFDYVSAEATKGIAHAMLKYSMPVSFGVLTTDNIEQAIERAGSKAGNKGFEAMSTLIELLSLCQTLKG”: “failed”; “MQIKELAELTGVSVRTLHHYDKIGLLVPQKDDWNGYRIYSEKDVDKLQQILFFKELDFPLKKIQQILDDPLFDKNVALDMQRHLLIEKKQRIETMLATLDLTIKNEKGEITMTNKEKFTGFDFSSNPYEEEARKLWGDKVVEKANEKVNNMSEKEQLTLKESFDAEFRHLASVRKLTPESEEAQLEIDHFFHYLNDTHGNIYSLEAFASLGEMYVNDERFTKNIDQFGDGLSQFLQEAMTIYAKNK”: “not failed”; “MQISIKTVKGKSINLEVADSSDTIDLKINGEPTRQLVLRLGPAVLMRIFVSTIKEKTFILEVKGSDTIKKLKSMIHDQGGPPVDQQDLNHLGTKLKNNATISDYNIKPDANLVIMQNGCIC”: “failed”. For “MQITIKVLKGKDCTIEVAPTSTILEVKHQIEAELQISATNQKLLLLGRPLNNEQTIASYPNIKEGTKLNLVVIKP”, the protein production result was “failed”. Next, “MQITIKVLKGKDCTIEVAPTSTILEVKHQIEAELQISATNQKLLLLGRPLNNEQTIASYPNIKEGTKLNLVVIKPCLRDSILRGFRKHYSEPLAERMTNEFMADFERKINEQSLDDLERLADSIVNRAAT”: “failed”. Regarding “MQIVKKEKFILKEYTFENGRTIPVQMGYETYGTLNRERSNVILICHYFSATSHAAGKYTAHDEESGWWDGLIGPGKAIDTNQYFVICTDNLCNVQVKNPHVITTGPKSINPKTGDEYAMDFPVFTFLDVARMQCELIKDMGIARLHAVMGPSAGGMIAQQWAVHYPHMVERMIGVITNPQNPIITSVNVAQNAIEAIRLDPSWKGGKYGEEQPMKGLQLANRMMFMNAFDEHFYETTYPRNSIEVEPYEKVSSLTSFEKEINKLTYRSIELVDANSWMYTAKAVLLHDIAHGFSSLEEALSNVEANVLMIPCKQDLLQPSRYNYKMVDLLQKQGKYAEVYEIESINGHMAGVFDIHLFEKKVYEFLNRKVSSFV”, the protein production result is recorded as “not failed”. With “MQKCSLITVISLSVLMLAGCTTTYTMTTRTGEIIETQGKPEVDTATGMTKYADAYGYHRVIKTSEIVQTTEGASKLDWLEHHHHHH”, the protein production result is given as “failed”. Regarding “MQKINIDRHATAQINMLANKLMLKSSTAYTQKFGIGMTEWRIISVLSSASDCSVQKISDILGLDKAAVSRTVKKLEEKKYIEVNGHSEDKRTYAINLTEMGQELYEVASDFAIEREKQLLEEFEEAEKDQLFILLKKLRNKVDQM”, the protein production entry is listed as “not failed”. Then “MQKIPGYENTNSEVPDKKYWLYGLMIVFFALAFRLFELGERVLHHDESIHASFTLKLLEHGEYSYDPAYHGPFLFHSTAAVFHFLGITDTTSRLVPVLFGVATILLLFLLKKELGKNGVLWSMFLLAFSPSMVYFSRFFRNDMIIIFCTLAAVTGAFRYLDSIHSLKRYPYLVLAASSLAVAVSSKENAYIILAVFGAYAGLGFLYWICSDWKKENMGLKETLRSKTSALLPYLPEIILSGALSVFIIMFFYSSAFRYDVSLFSIVERAFNHWMEMHSIERIGGPFYYYIPILLRYEIPVVLFGAAGFFYFLFNRVRNKGQNYSFFLFLCYWALTSLLLYSYIQEKVPWLVVHIVLPFGLLAGAFLGEVFSKKNKDGQPKKPDYPGKIRALLTVILVLTLLVFISQCISVNYYRSMEDEELITYTQASPDIRILMEKIEGFNESPDTLRIYVIDQYQLYWPLPWYLRDYERAAYSSKPPSSSKYDAIIVPISCDMYRELSEEEYSSYNFTLRPGRDFTLYYNNKLEQQ”, with “failed”; and “MQKKNFWQIYFGKDPFSKAEFIKAWIGWWVIAIVLLGVLSICTSLNLRGIGIALGFGFCQIHARYLTFVGWNKFIGVLGVFPVTNIILFIVLLFTKKK”, with “failed”. As for “MQKKSIYVAYTGGTIGMQRSDNGYIPVSGHLQRQLALMPEFHRPEMPDFTIHEYAPLIDSSDMTPEDWQHIANDIQQNYDLYDGFVILHGTDTMAFTASALSFMLENLAKPVIITGSQIPLAELRSDGQTNLLNALYLAANHPVNEVSLFFNNQLFRGNRTTKAHADGFDAFASPNLSVLLEAGIHIRRQSSVVSPTSNGPLIVHRITPQPIGVVTIYPGISGAVVRNFLLQPVKALILRSYGVGNAPQKAELLDELKNASDRGIVVVNLTQCISGSVNMGGYATGNALAQAGVISGFDMTVEAALTKLHYLLSQSLSPNEIRQLMQQNLRGELTDTQ”, the protein production result is reported as “not failed”.

As to “MQKKTQKLTVYVIVGLLIISLVGTSFMFLGDMRPTVGKNYQDQINSLKQALEANPQDTQTRLALADTYYDWGMQTLSQDMAEENLATTTSILQQAVTEYQEVLKTEKNVNILVDMATAAFYTSQNELADQTFQEALQEDPNFYNGLYNYGVFLYSQGDYGKAIEQWEKALALENISTDDKERLERNIKLAQDGIVQQFQQPENGDSSDANAEAK”, the protein production entry was “failed”.

(Values after a protein production outcome set (Wang et al. 2014).)
